Results reported in the DeepSol protein solubility set.

Experiment: soluble on expression in E. coli; label from the status in PepcDB or PDB records

| Sequence | soluble on expression in E. coli |
| --- | --- |
| MSLDKGTVDGRLYQLFKTCIQGINSPLSSVALRSDFYILANHYLSRVLSDQVGSEKVLQDLRLGSKKLVEIIWNDVVYGEGTSRVTGILLLDSLIQLANRSKENFILDSLMKTTRLLLIIRSLKNTDALLNSTTEHINIDDLLYELTAFKATVFFLIRVAETRGGASALIENNLFRIIAELSFLKVDPDLGLDLMFDEVYVQNSKFLKVNVTLDNPLLVDKDANGVSLFELIVPIFQLISAVLVSMGSSNKAVVQTVKGLLNTYKRLVIGIFKRDLLREKEDKKNSSDPNNQSLNEMVKLIVMLCTLTGYQNNDEGHHHHHH | not soluble |
| MSLDKRLFLDPDTAIERLQRLQQALEMGVSSLMALVTTDWRCYGYMERHINEIRTAVDKVELFLKEYLHFVKGAVANAACLPELILHNKMKRELQRVEDSHQILSQTSHDLNECSWSLNILAINKPQNKCDDLDRFVMVAKTVPDDAKQLTTTINTNAEALFRPGPGSLHLKNGPESIMNSTEYPHGGSQGQLLHPGDHKAQAHNKALPPGLSKEQAPDCSSSDGSERSWMDDYDYVHLQGKEEFERQQKELLEKENIMKQNKMQLEHHQLSQFQLLEQEITKPVENDISKWKPSQSLPTTNSGVSAQDRQLLCFYYDQCETHFISLLNAIDALFSCVSSAQPPRIFVAHSKFVILSAHKLVFIGDTLTRQVTAQDIRNKVMNSSNQLCEQLKTIVMATKMAALHYPSTTALQEMVHQVTDLSRNAQLFKRSLLEMATEGHHHHHH | soluble |
| MSLDLFRSEPVAQPLAARLRPANLDEYVGQEHLLARGKPLREALEQGALHSMIFWGPPGVGKTTLARLLAQVSDAHFETISAVLSGVKEIRQAVEVAKQHAAQYGRRTILFVDEVHRFNKSQQDAFLPYVEDGTLIFIGATTENPSFELNNALLSRARVYVLKSLDEAALRKLVGRALNEDKGLGKRKLRLPEESFQVLLAAADGDGRRLLNLLENAADLAEDGSEISPELLQNLLGDTRRRFDKGGEAFYDQISALHKSVRGSNPDAALYWFARMLDGGCDPLYIARRVVRMASEEVGNADPRALGLCLSAWDVQERLGSPEGELAVAQAIVYLACAPKSNAVYSAFNAAMRDVAESGSREVPLHLRNAPTKLMKSLGYGEEYRYAHDEPDAYAAGEDYFPEDLEPRRYYQPVPRGLELKIRDKLEHLAELDRTSPRQREGHHHHHH | soluble |
| MSLDLQEKVRVAAEAVKHADAIVMTAGAGMGVDSGLPDFRGDTGFWKAYPPYQKLGITFVGAANPDHFERDPSFGWGFYGHRTNLYRATVPHAGFDILREWVQRYGLDYFVVTSNVDGQFQKAGFADDRILEVHGSIHHLQCTTPCTMAIWENRETIPVDEATMRAGHVPRCIHCGAVARPNILMFGDYGWVSDRSARQQRNFDEFLADTRGGRLVVVEMGAGTAIPTIRYLTEELGSRSEALAVRINPREPQIRAPHLSLPCGAREGVAAINAVLAEESEGHHHHHH | soluble |
| MSLDPSKVTSMSAVEFTPLPTCLQHRSCDACMSSDLTFNCSWCHVLQRCSSGFDRYRQEWMDYGCAQEAEGRMCEDFQDEGHHHHHH | not soluble |
| MSLDQREILQKFLDEAQSKKITKEEFANEFLKLKRQSTKYKADKTYPTTVAEKPKNIKKNRYKDILPYDYSRVELSLITSDEDSSYINANFIKGVYGPKAYIATQGPLSTTLLDFWRMIWEYSVLIIGMACMEYEMGKKKCERYWAEPVEMQLEFGPFSVSCEAEKRKSDYIIRTLKVKFNSETRTIYQFHYKNWPDHDVPSSIDPILELIWDVRCYQEDDSVPICIHCSAGCGRTGVICAIDYTWMLLKDGIIPENFSVFSLIREMRTQRPSLVQTQEQYELVYNAVLELFKRQMDVIRDKHSGTESQAKEGHHHHHH | soluble |
| MSLDRASHLKMSSEERRAHRDGTVWQLYEWQQRQQFRHGSPTAPICLGSPEFTDQGRSRSMLEVPRSISVPPSPSDIPPPGPPRVFPPRRPHTPAERVTVKPPDQRRSVDISLGDSPRRARGHAVKNSSHVDRRSMPSMGYMTHTVSAPSLHGKSADDTYLQLKKDLEYLDLKMTGRDLLKDRSLKPVKIAESDTDVKLSIFCEQDRVLQDLEDKIRALKENKDQLESVLEVLHRQMEQYRDQPQHLEKIAYQQKLLQEDLVHIRAELSRESTEMENAWNEYLKLENDVEQLKQTLQEQHRRAFFFQEKSQIQKDLWRIEDVTAGLSANKENFRILVESVKNPERKTVPLFPHEGHHHHHH | soluble |
| MSLDRVDRDILRILHAKGRLPVVELAKLVNLTTSPCSERVKRLEKEGYIRGYHADLDPGKLGLDVQVFIHIRLDQSSFSIFERFAHAVADIPEIEACYSLSGDFDTMIKVRVKDMKAYQAFMSGKLGSLPGVIQTRSEFVIEEHKTSFGINPELIYSLPS | not soluble |
| MSLDSGRNGGGPSVFRRDLLRSIGAAGLAGLAGCGGSEGVTDGDGTPAPTPVGNFPVSGDSVTFGFNVASSGAYSTAGKQEIRGFKLAVKHINNGGGWVTSEKYNSPLDGDGLLGKDVEFVVEDTGGSSDTARSNAQRLVDGEEVIMLAGGTSSSAGLANQEVAAQNQVIYMATMANTNSLTGADCNRYSFREMFNNHMAAEALAPALSDEFGKNANYVKIFQDNDWGQTLRDDMDAALGNVGWAPVWDTTAQVGTSDYSQYAADIKSVDFDVIVLGLGGLDAVNALRAFRDEFPESNIVLPMASREIAETAGGAIEGVIGTVAWSRAINSPLSNTFRETFREEYGSSTGSSKSAAPSGAAHIAYTQALQYASAVERAGTFNPIDVIGALEGHEYDAGLGPQTLRACDHQAMRQVPVVRGKSEIQQSYGTYYDLIGEPADVQYACDSGPAANCSLGGSEGHHHHHH | not soluble |
| MSLDTYTTSEVADLIGVHPNTVRLYEELNLIPKPKRNTNGYRIFNDFHIEQFRFARTALKIEVVQRGLRKDALEIVRTSANRDFDKAISLVNQYLQQLEIEKSNAEEALTIVAQILNGNTPETNKLFLTRKETAEHLNEGHHHHHH | not soluble |
| MSLDVLSVSEINAQIKALLEATFLQVRVQGEVSNLTIHKVSGHAYFSLKDSQSVIKCVLFKGNANRLKFALKEGQEVVVFGGISVYVPRGDYQINCFEIEPKDIGSLTLALEQLKEKLRLKGYFDEENKLPKPHFPKRVAVITSQNSAAWADMKKIASKRWPMCELVCINTLMQGEGCVQSVVESIVYADSFHDTKNAFDAIVVARGGGSMEDLYSFNDEKIADALYLAKTFSMSAIGHESDFLLSDLVADLRASTPSNAMEILLPSSDEWLQRLDGFNVKLHRSFKTLLHQKKAHLEHLVASLKRLSFENKHHLNALKLEKLKIALENKTLEFLRFKKTLLEKISTQTLTSPFLQTKTERLNRLENALKLAHANLKLPQFGALVSKNNQAIELEALKRGDKIELSNEKTRASAEILSVDRVEGHHHHHH | soluble |
| MSLEAAPAGSGPLRRTFLVPEIKSLDQYDFSRAKAAASLAWVLRAAFGGAEHVPPELWEPFYTDQYAQEHVKPPVTRLLLSAELYCRAWRQALPQLEPSPSPSALLALLARRGTVPSLPEHPVREADLKHQPILMGAHLAVIDALMVAFSFEWTKTLPGPLALSSLEHKLLFWVDTTVRRLQEKTEQEAAQRASPAAPLDGASPAQPSIRYRKDRAIARRAPCFPNVTTLQDLASGAALAATIHCYCPQLLRLEEVCLKDPMSVADSLYNLQLVQDFCASHLPRGCPLSLEDLLYVPPPLKVNLVVLLAEMYMCFEVLKPDFVQAKDLPDGHAVSPRNTETVPSQNNSGSSSSPSRLPGSRERDWENGSNASSPASVPEYTGPRLYKEPSAKSNKFIIHNALSHCCLAGKVNEPQKNRILEEIEKSKANHFLILFRDSSCQFRALYTLSGETEELSRLAGYGPRTVTPAMVEGIYKYNSDRKRFTQIPAKTMSMSVDAFTIQGHLWQSKKPTTPKKGGGTPKEGHHHHHH | soluble |
| MSLEAKKDMGRCLWELKDEIDHVDRYCHDLAAWDDLHAFIKAPNADFLKINLNADTILDNEVSFICIVDRSGQLLFAEDWDLHRKEKTVLTTLPDSLRSVASLPFSSESDKDDLSNMKRVGIYNSSRGPMMLSSRPIITSNQQGPVQGAVIIGRLLDQGSLDAMMVRVALNFRFIDMSGDELTAKEKKILGELAVEEISIVERENSDNLEVYSHLADIGGRYLIQAEIPKHILQREGHHHHHH | soluble |
| MSLEDSEQIQILQHLISINSVNDHEADVAAYIQQLFADHGITSQVIPYADGRANIIAEIGDTTSDQVFALAGHLDTVATGDVADWKFDPFSAHIVDNQLYGRGAADMKSGLAAMVITLINLADQQTPLTGRLRFIGTVGEENGAMGSRMLTEKGVADDLTAMVIGEPTGGNLVYAHNGSLNYHVYSRGVGAHSSMPEKGINAITNLIKYVTAEATAFDDAPVSPELGPLVHSVTVFNGGEQVNSIPAKAELQGNIRPIPEFDNTAVIHRLHETVDRLNQEPGVDLALHVDYSFKPIISAKDSPLVQTTKAIADQEFGHAIDLQVIHGATDASEFTKSSHDFPVIVYGAGKWDAAHALNESVDLDEFRHVQHVYQQLVEKFLSEGHHHHHH | soluble |
| MSLEGYSVLVLERHYRAGGYAHSFRRRKFIFDSAVRIAAGAMDGGLLEELLQEAGVSQDVEFLHLEDIYTAYYPNRKITVKGSVEGLIEAYCEEFPHECHNIRALVQEMEKLYEVTLMLLHSGDPLKVLSNPLMLKYRDKSFHDLTSSFLQDPQAIHSFAALWAYYGTPPTQGSAMFFAYAIMSYFKEDIYYAKGSFQSLADAFVKRIESLGGEVCLRNEVQRVEVEDRQIKGVHLQTGEYVEAEKVVCNGDFLKLVQHLVGEEHFPARYLKRISKLKPSISAFEVFLGVDLPLEKQGLSHETFIYNDYDYDLFMEKHQSLGEIGASGLSGLAISIPSLVDSSLAPEGMHTAILTTLVPYDIGCDWKEKKEDYQDQLIKMAERAIPNLGRHAVHVESGTPLTMERYTNNSFGSIYGWEQTKNQMTGRPQHETPIKGLYLSGQWTDPGGGIVSAILSGYKLRKKIMKEQVVMEGHHHHHH | not soluble |
| MSLEHFDDKSQLKRNGFYFSYNVDKENIEHWISAILFQVLKDKEDIVILSLGVDTLVGDSLGPLVGSILKRNGIPNVYGTLDRTVNASNIIKILDEIHERFKNPYILVVDAAVTAENNINDIVLRNGGFTPGFGVYRQLPTVGDFSLVGVVNKEDEREHNLIELLKKCRFDEVLKLARIISKILVLTFARMNKGDKEGHHHHHH | not soluble |
| MSLEHILLPLDLSEVSKPLAISVAELASRHKSRVTLLHVIEEAMVIHVAAGYDVSSLIRSIEKNAREKLDKIKKLMMEKGANVVVYEDIPVGNPGTVISEVAEEVGATEIVMGSKGLGIFRILPLGSTVRETVKISRKPVIRLKTYKENGHVKVAYSPMLFRKILVGADRNTSKSMIDYAVNAASTDDGKVILAHIIEPPLEEPSYEVKNVFKYGEKAGEERGVEVEIVVARGRPDKMLTAIASQMDASSVLVGRTVERRLSELILGSTLDRLMTLCELPLIVYPLEGHHHHHH | soluble |
| MSLEKEYEYLVPPDDYLAAGVHIGTQIKTGDMKKFIFKVRQDGLYVLDIRKLDERIRVAAKFLSRYEPSKILLVAARQYAHKPVQMFSKVVGSDYIVGRFIPGTLTNPMLSEYREPEVVFVNDPAIDKQAVSEATAVGIPVVALCDSNNSSADVDLVIPTNNKGRRALAIVYWLLAREIAKIRGQDFTYSIEDFEAELEGGSHHHHHH | soluble |
| MSLEKVDFIKEDLIFSLLEKGKITDRNEIREILAKARECKGISLGEVAKLLYLEDEELLEELYDVAKYIKNKIYGKRVVLFAPLYTSNECTNNCLYCGFRHDNKELHRKTLSLEEIVEEAKAIERQGHKRLLLICGEDPRKTNVKHFTDAMEAIYKSTDIRRINVEAAPMTVEDYRELKKAGIGTYVIFQETYHRETYRIMHPVGKKANYDWRITAIDRAFEGGIDDVGVGALFGLYDYRFEVLGLLMHCMHFEEKYGVGPHTISVPRLRPALGAPLKEIPYKVTDKDFKKIVAIFRIAVPYTGIILSTRERAEFRDELLSVGVSQISAGSKTNPGGYQEDDDHADQFEISDNRSLPKVMETICQQGYIPSFCTACYRRCRTGEHFMEYAKAGDIHEFCQPNAILTFKENLMDYADEPLRKMGEEVILKALEEIEDEKMKTLTIAKLEEIEKGKRDIYFEGHHHHHH | soluble |
